Biological target: hyperactive SB transposase mutant HSB5
Assay: cell-based or functional assay

- integration frequency against cells containing the E2C/SB-5 fusion protein without the limiting amount of HSB5 (142 colonies): 4 fold
- integration frequency against cells expressing the same limiting amount of HSB5 transposase alone (58 colonies): 10 fold
Substance: E2C/SB-5 fusion protein

Source: patent publication US20060252140A1
